One block for each binder: values may come before it.
Experiments:
[1] = molecular target: Nck1-SH3.1 (residues 4–59) (human, UniProt P16333 4-59); experiment: crystal structure; Nck1-SH3.1 (4-59) with 2-fold molar excess of Ac-…-NH2; 0.1 M Bis-Tris/HCl pH 6.5, 2 M (NH4)2SO4; sitting drop, 22 °C; two complexes in the asymmetric unit (5QU2); settings: both partners purified
[2] = molecular target: Nck1-SH3.1 (residues 4–59) (human, UniProt P16333 4-59); experiment: crystal structure; Nck1-SH3.1 with 2-fold molar excess of Ac-…-NH2; 0.1 M BisTris/HCl pH 6.5, 2 M (NH4)2SO4; space group I212121, two complexes in the asymmetric unit; settings: both partners purified

- binding result [1]: binds
B1: CD3ε-derived peptide Ac-PPPVPNPDY-NH2 (residues 180–188) (peptide)
peptide: Ac-PPPVPNPDY-NH2
notes: also called minimal CD3ε peptide; source: synthetic peptide, from Biosynthan

- binding result [2]: binds
B2: minimal CD3ϵ peptide Ac-PPPVPNPDY-NH2 (residues 180–188) (peptide)
peptide: Ac-PPPVPNPDY-NH2
notes: CD3ϵ residues 180–188 (PRS); MM 1109.3 Da; source: synthetic peptide (bought: Biosynthan)

From publication PMC7278359 (The Journal of Biological Chemistry, 2020)
